Measured values from publication PMC12604968, “Mutant NPM1 modulates PDCD4 ubiquitination degradation and facilitates leukemogenesis” (iScience, 2025).
Ends that are not written are not given here. * marks the point of attachment. Biotin = O=C1N[C@H]2[C@H](CS[C@H]2CCCCC(=O)*)N1

T1: GST-PDCD4 recombinant protein (human, UniProt Q53EL6 1-469)
T1 construct: PDCD4 (programmed cell death 4), human, amplified from cDNA of HEK293T cells and cloned into pGEX-6P-1; pGEX-6P-1 is known to add GST at the N-terminus; also called GST-tagged PDCD4; source: E. coli BL21 (DE3), purified (Glutathione Sepharose 4FF)
T1 sequence (looked up): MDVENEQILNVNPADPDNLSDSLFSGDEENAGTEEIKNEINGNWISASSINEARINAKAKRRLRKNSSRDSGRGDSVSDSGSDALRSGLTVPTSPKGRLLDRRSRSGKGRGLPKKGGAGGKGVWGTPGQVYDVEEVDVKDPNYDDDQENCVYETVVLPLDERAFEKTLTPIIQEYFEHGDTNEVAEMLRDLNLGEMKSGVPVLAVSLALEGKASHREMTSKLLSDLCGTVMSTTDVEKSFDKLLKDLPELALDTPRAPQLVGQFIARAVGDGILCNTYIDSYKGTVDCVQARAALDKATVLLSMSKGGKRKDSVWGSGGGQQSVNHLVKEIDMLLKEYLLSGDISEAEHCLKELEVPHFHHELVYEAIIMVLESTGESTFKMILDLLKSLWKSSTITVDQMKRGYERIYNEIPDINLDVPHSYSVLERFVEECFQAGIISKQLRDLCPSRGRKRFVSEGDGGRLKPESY

B1: Biotin-PDCD4-NoLS peptide (peptide)
peptide: Biotin-EARINAKAKRRLRKNSSRDSGRG
notes: PDCD4, human, nucleolar localization signal (NoLS); also called biotinylated PDCD4-NoLS peptides; biotin-tagged PDCD4-NoLS peptide; source: synthetic peptide, bought: GL Biochem; not shown: biotin, N-terminal, kept
B2: His-tagged NPM1 N-terminal domain (NPM1-NT, aa 1-117) (domain or fragment, human, UniProt P06748 1-117, looked up)
chain: MEDSMDMDMSPLRPQNYLFGCELKADKDYHFKVDNDENEHQLSLRTVSLGAGAKDELHIVEAEAMNYEGSPIKVTLATLKMSVQPTVSLGGFEITPPVVLRLKCGSGPVHISGQHLV
notes: source: E. coli BL21 (DE3), purified (Ni-NTA)

Key:
[1] = target: B2; experiment: pull-down; biotinylated PDCD4-NoLS peptide immobilised on streptavidin beads, incubated with purified NPM1 fragment proteins; details: both partners purified
[2] = target: T1, GST-PDCD4 recombinant protein; experiment: pull-down; GST-PDCD4 immobilised on Glutathione Sepharose 4FF beads, incubated with purified His-tagged proteins; SDS-PAGE, Coomassie blue; details: both partners purified

Row | binding result [1] | binding result [2] | Binder
1 | binds | – | B1
2 | – | binds | B2
